Data reported in article PMC2203988.

Tested on: U1A N-terminal RRM
Assay: EMSA
Conditions: 10 mM Tris-HCl pH 7.4, 250 mM NaCl, 1 mM EDTA, 0.5% Triton X-100, 1 mg/mL tRNA, 25 pM RNA, at least 45 min, gel at 25 C (A6P, A6c1A and A6G of Table 3 omitted: …)

A1G SL2 RNA
Kd: 1.4 µM

A6-2AP SL2 RNA
Kd (loop A6 to 2-aminopurine): 0.7 µM

G4-2AP SL2 RNA
Kd (loop G4 to 2-aminopurine): 4 µM

A1-2AP SL2 RNA
Kd (loop A1 to 2-aminopurine): 0.04 µM

C10A SL2 RNA
Kd: 0.0006 µM

WT SL2 RNA
Kd: 0.0003 µM

A1P SL2 RNA
Kd (loop A1 to purine (6-NH2 replaced by H)): 0.0009 µM

A6I SL2 RNA
Kd (loop A6 to inosine): 8 µM

G4A SL2 RNA
Kd: 11 µM

G4dG SL2 RNA
Kd (loop G4 to 2'-deoxyguanosine): 0.00011 µM

A6DAP SL2 RNA
Kd (loop A6 to 2,6-diaminopurine (DAP)): 0.11 µM

A1DAP SL2 RNA
Kd (loop A1 to 2,6-diaminopurine (DAP)): 0.04 µM

A1G/C10A SL2 RNA
Kd: 1.3 µM

G4c7dG SL2 RNA
Kd (loop G4 to 7-deaza-2'-deoxyguanosine (c7dG)): 0.031 µM

G4I SL2 RNA
Kd (loop G4 to inosine): 0.003 µM

G4DAP SL2 RNA
Kd (loop G4 to 2,6-diaminopurine (DAP)): 2 µM

A1I SL2 RNA
Kd (loop A1 to inosine): 0.016 µM

A1c1A SL2 RNA
Kd (loop A1 to 1-deazaadenosine (c1A)): 0.0007 µM
